We go through three substances from publication PMC4346194.

Holding throughout (experiment): pull-down
Test [1] deals with GST-tagged FL-importin α7 (human) (UniProt O60684).
In test [2] the target is GST-tagged ΔIBB-importin α1 (mouse) (UniProt P52293).
Test [3] has as its target GST-tagged ΔIBB-importin α7 (human) (UniProt O60684).
The target in test [4] is GST-tagged FL-importin α1 (mouse) (UniProt P52293).
In test [5] the target is GST-tagged IBB3-importin α1 (human | mouse) (UniProt O00629).
Test [6] deals with GST-tagged ΔIBB-importin α3 (human) (UniProt O00629).
The target in test [7] is GST-tagged FL-importin α3 (human) (UniProt O00629).
Test [8] deals with GST-tagged IBB1-importin α3 (mouse | human) (UniProt P52293).

Sequence of MBP-tagged PB2-biNLS (res. 738-759) (P31345 738-759 limits assumed): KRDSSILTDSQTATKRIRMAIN
Sequence of GST-tagged ΔIBB-importin α7 (human) (O60684 59-536, stated change not applied): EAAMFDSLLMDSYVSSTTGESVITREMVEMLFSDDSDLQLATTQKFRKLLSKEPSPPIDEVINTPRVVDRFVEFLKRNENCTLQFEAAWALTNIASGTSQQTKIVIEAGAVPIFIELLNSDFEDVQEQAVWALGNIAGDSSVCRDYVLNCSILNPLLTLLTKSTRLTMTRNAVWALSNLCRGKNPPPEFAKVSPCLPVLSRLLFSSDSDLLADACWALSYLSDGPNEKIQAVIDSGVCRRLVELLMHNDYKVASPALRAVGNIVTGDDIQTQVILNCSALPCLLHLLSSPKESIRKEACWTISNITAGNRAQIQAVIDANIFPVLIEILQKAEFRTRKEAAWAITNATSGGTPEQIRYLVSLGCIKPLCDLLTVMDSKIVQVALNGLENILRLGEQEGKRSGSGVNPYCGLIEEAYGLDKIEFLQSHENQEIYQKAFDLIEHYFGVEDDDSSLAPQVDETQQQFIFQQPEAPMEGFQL
Sequence of GST-tagged FL-importin α3 (human) (O00629 whole entry): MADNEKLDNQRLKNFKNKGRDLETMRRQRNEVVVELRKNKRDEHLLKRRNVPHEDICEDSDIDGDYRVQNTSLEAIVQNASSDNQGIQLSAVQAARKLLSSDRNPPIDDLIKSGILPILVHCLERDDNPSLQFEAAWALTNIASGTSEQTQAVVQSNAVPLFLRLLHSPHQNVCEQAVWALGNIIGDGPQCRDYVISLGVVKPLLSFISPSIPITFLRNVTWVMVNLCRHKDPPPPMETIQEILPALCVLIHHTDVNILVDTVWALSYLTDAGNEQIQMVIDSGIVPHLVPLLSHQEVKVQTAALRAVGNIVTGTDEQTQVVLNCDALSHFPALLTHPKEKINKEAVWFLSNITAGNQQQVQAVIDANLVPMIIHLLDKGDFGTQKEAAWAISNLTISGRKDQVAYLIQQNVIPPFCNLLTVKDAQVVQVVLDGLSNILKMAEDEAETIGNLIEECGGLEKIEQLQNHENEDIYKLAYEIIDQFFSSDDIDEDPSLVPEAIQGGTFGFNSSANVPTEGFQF

For “MBP-tagged PB2-NLD (res. 678-759) (from UniProt P31345 678-759) (domain or fragment)”, the percent of importin α bound to cargo in test [1] is 62%; in test [2], 100%; in test [3] it was 100%; in test [4] it was 32%; in test [5], 70%; in test [6] it was 100%.
With “MBP-tagged PB2-biNLS (res. 738-759) (from UniProt P31345 738-759) (peptide)”, the percent of importin α bound to cargo in test [1] came to 21%; in test [2], 51%; in test [3] it was 81%; in test [4] it was 7%; in test [6], 27%; in test [7], 7%.
Turning to “MBP-tagged nucleoplasmin NLS (NP-NLS, res. 155-170) (from UniProt P05221 155-170) (peptide)”, the percent of importin α bound to cargo in test [8] turned out to be 12%; in test [5] it was 57%; in test [6], 45%.
